The source of these data is FireProtDB (doi:10.1021/bi00212a026).

First the molecules themselves.
B1: Ribonuclease, P00648 (parent)
chain: MMKMEGIALKKRLSWISVCLLVLVSAAGMLFSTAAKTETSSHKAHTEAQVINTFDGVADYLQTYHKLPDNYITKSEAQALGWVASKGNLADVAPGKSIGGDIFSNREGKLPGKSGRTWREADINYTSGFRNSDRILYSSDWLIYKTTDHYQTFTKIR

The variants in this data set derive from B1. Particulars: Bacillus amyloliquefaciens; pH 6.3; 25 °C; Urea; Fluorescence; MES 50 mM; NaCl 0.15 M; reversible: yes; structure 1BNI; whole UniProt chain shown.

Turning to I51A I98V, the “ddG of mutation (higher = less stable)” value was 11 kJ/mol, the denaturant m value is 2.11 kcal/mol/M, the “denaturant midpoint (higher = more stable)” value (shortened to “denaturant midpoint”) stood at 2.92 M and the unfolding free energy was 25.8 kJ/mol.

I123T: the “ddG of mutation (higher = less stable)” value was 11.3 kJ/mol, the denaturant m value amounted to 1.87 kcal/mol/M, the “denaturant midpoint” value is 3.26 M and the unfolding free energy stood at 25.5 kJ/mol.

For the variant I51A I123V, the “ddG of mutation (higher = less stable)” value came to 7.78 kJ/mol, the denaturant m value amounted to 1.92 kcal/mol/M, the “denaturant midpoint” value was 3.61 M and the unfolding free energy was found to be 29 kJ/mol.

As to I51A Y125F, the “ddG of mutation (higher = less stable)” value amounted to 10.6 kJ/mol, the denaturant m value came out at 1.95 kcal/mol/M, the “denaturant midpoint” value stood at 3.21 M and the unfolding free energy was determined as 26.2 kJ/mol.
